Data on one molecule can be found in publication PMC11761706.

For the data set, the target named is T1, Loz1AZZ (Schizosaccharomyces pombe, UniProt Q9UTA1 426-522).
T1 sequence: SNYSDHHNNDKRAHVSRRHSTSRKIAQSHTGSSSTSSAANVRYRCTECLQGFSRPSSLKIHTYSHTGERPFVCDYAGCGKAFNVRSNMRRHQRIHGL
As to the kind of experiment: NMR.

B1: LRE DNA 14 bp (dsDNA)
DNA 1: GCGACGATCATTGG
DNA 2: CCAATGATCGTCGC
Turning to B1, the binding result is “binds”.
